According to patent US20210246166A1 (Bayer, published 2021):
Numbered stars: 1 amine (or outer) side, 2 acyl side, 3 side chain; on linkers, the order of the positions; unused ones are H or OH. Bridge positions count the residues as written; N and C are the ends. Square brackets hold non-standard residues; d marks the D form. Ends that are not written are not given here. cPrCO(1-aminomethyl) = O=C(C1(CN[*:1])CC1)[*:2]; Pro(4-spirocPr) = O=C(O)[C@@H]1CC2(CC2)CN1; Oic = O=C(O)[C@@H]1C[C@@H]2CCCC[C@@H]2N1; tBuAla = CC(C)(C)C[C@H](N)C(=O)O; Pen = CC(C)(S)[C@H](N)C(=O)O; NMeC = CN[C@@H](CS)C(=O)O; PEG3 = NCCOCCOCCOCCC(=O)O; PEG2 = NCCOCCOCCC(=O)O; Sar = CNCC(=O)O

Assays:
Assay in all cases: cell-based or functional assay
[1] = target: recombinant rat MASP2 active protease (amino acids 296-685, C-terminal His Tag) (rat, UniProt Q9JJS8 296-685)
[2] = target: T1, recombinant rat MASP1 active protease (amino acids 302-704, C-terminal His Tag) (rat, UniProt Q8CHN8 302-704)
T1 sequence: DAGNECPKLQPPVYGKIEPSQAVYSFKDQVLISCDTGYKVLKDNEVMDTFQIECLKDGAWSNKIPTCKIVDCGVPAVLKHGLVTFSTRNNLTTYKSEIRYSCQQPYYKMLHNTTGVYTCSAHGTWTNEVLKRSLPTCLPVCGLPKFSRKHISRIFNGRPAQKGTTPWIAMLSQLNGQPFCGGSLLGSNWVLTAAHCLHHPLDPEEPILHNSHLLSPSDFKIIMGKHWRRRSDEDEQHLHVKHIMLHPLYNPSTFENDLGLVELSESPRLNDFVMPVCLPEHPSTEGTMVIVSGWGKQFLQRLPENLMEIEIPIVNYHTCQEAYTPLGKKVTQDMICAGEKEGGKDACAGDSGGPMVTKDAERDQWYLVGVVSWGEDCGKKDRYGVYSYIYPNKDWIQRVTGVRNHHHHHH

[3] = target: T2, recombinant human MASP1 active protease (amino acids 297-699, C-terminal His Tag) (human, UniProt P48740 297-699)
T2 sequence: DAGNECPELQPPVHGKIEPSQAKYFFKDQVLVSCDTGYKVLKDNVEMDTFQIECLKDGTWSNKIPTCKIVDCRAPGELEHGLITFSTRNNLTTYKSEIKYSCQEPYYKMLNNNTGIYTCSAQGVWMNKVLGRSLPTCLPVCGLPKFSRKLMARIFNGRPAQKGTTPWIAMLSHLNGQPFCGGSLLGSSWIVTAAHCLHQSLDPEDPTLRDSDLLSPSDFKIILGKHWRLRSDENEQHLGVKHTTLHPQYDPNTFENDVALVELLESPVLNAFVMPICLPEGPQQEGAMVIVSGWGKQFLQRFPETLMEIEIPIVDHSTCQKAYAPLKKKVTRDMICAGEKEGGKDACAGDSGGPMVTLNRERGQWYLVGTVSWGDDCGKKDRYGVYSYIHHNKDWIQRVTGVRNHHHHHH

Chain of recombinant rat MASP2 active protease (amino acids 296-685, C-terminal His Tag) (Q9JJS8 other isoform, or with tags, fused parts or gaps limits assumed): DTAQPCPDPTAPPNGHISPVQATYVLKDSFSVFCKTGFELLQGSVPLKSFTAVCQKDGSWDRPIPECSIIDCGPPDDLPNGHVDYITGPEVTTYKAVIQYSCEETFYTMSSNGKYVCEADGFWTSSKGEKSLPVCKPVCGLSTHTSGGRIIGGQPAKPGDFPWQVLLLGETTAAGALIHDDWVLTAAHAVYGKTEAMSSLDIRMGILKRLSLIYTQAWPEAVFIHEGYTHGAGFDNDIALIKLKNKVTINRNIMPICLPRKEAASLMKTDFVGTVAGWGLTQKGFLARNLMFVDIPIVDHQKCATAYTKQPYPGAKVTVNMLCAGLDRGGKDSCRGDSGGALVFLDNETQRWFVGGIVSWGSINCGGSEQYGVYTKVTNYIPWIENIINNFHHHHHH

Binder | rat MASP2 IC50 [1] | rat MASP1 IC50 [2] | human MASP1 IC50 [3]
AICSRSLP[Oic]I[Pen]IPD-OH (disulfide 3-11) [Example 5: AIC+SRSLP-(Oic)-I-(Pen)+IPD-OH (salt free form)] | 49 nM | – | –
[Sar]ICSRSLP[Oic]I[Pen]IP-{PEG3-NH2} (disulfide 3-11) [Example 7: ((N-Me)G)-IC+SRSLP-(Oic)-I-(Pen)+IP-(PEG2(13 atoms))-NH2] | 16 nM | 30 nM | –
AICSRSLP[Oic]I[Pen]IPD-OH (disulfide 3-11; also: TFA salt) [Example 13: AIC+SRSLP-(Oic)-I-(Pen)+IPD-OH] | 16.4 nM | – | –
AICSRS[tBuAla]PPI[Pen]IP[dE]-NH2 (disulfide 3-11; N-terminus assumed; SMILES CC[C@H](C)[C@H](NC(=O)[C@H](C)N)C(=O)N[C@H]1CSSC(C)(C)[C@@H](C(=O)N[C@H](C(=O)N2CCC[C@H]2C(=O)N[C@H](CCC(=O)O)C(N)=O)[C@@H](C)CC)NC(=O)[C@H]([C@@H](C)CC)NC(=O)[C@@H]2CCCN2C(=O)[C@@H]2CCCN2C(=O)[C@H](CC(C)(C)C)NC(=O)[C@H](CO)NC(=O)[C@H](CCCNC(=N)N)NC(=O)[C@H](CO)NC1=O) [Example 21: AIC+SRS-((tBu)A)-PPI-(Pen)+IPe-NH2] | 40 nM | 67 nM | –
AICSRSLP[Oic]I[Pen]IPD-OH (disulfide 3-11; also: HCl salt) [Example 29: AIC+SRSLP-(Oic)-I-(Pen)+IPD-OH (HCl salt)] | 17.4 nM | – | –
[cPrCO(1-aminomethyl)]ICSRS[tBuAla]PPI[Pen]IPD-NH2 (disulfide 3-11; N-terminus assumed; SMILES CC[C@H](C)[C@@H]1NC(=O)[C@@H]2CCCN2C(=O)[C@@H]2CCCN2C(=O)[C@H](CC(C)(C)C)NC(=O)[C@H](CO)NC(=O)[C@H](CCCNC(=N)N)NC(=O)[C@H](CO)NC(=O)[C@@H](NC(=O)[C@@H](NC(=O)C2(CN)CC2)[C@@H](C)CC)CSSC(C)(C)[C@@H](C(=O)N[C@H](C(=O)N2CCC[C@H]2C(=O)N[C@@H](CC(=O)O)C(N)=O)[C@@H](C)CC)NC1=O) [Example 32: (ACMP)-IC+SRS-((tBu)A)-PPI-(Pen)+IPD-NH2] | 48 nM | 56 nM | –
[Sar]ICSRS[tBuAla]PPI[Pen]IP-{PEG2-NH2} (disulfide 3-11; also: HCl salt) [Example 39: ((N-Me)G)-IC+SRS-((tBu)A)-PPI-(Pen)+IP-(PEG1(10 atoms))-NH2 (HCl salt)] | 37 nM | 49 nM | –
AICSRS[tBuAla]P[Pro(4-spirocPr)]I[NMeC]IPD-NH2 (disulfide 3-11; N-terminus assumed; SMILES CC[C@H](C)[C@H](NC(=O)[C@H](C)N)C(=O)N[C@H]1CSSC[C@@H](C(=O)N[C@H](C(=O)N2CCC[C@H]2C(=O)N[C@@H](CC(=O)O)C(N)=O)[C@@H](C)CC)N(C)C(=O)[C@H]([C@@H](C)CC)NC(=O)[C@@H]2CC3(CC3)CN2C(=O)[C@@H]2CCCN2C(=O)[C@H](CC(C)(C)C)NC(=O)[C@H](CO)NC(=O)[C@H](CCCNC(=N)N)NC(=O)[C@H](CO)NC1=O) [Example 41: AIC+SRS-((tBu)A)-P-((6S)-5-Azaspiro[2.4]heptane-6-carboxylic acid)-I-((N-Me)C)+IPD-NH2] | 13 nM | 28 nM | –
[Sar]ICSRSLP[Oic]I[Pen]IP[PEG3]-OH (disulfide 3-11; N-terminus assumed; SMILES CC[C@H](C)[C@H](NC(=O)CNC)C(=O)N[C@H]1CSSC(C)(C)[C@@H](C(=O)N[C@H](C(=O)N2CCC[C@H]2C(=O)NCCOCCOCCOCCC(=O)O)[C@@H](C)CC)NC(=O)[C@H]([C@@H](C)CC)NC(=O)[C@@H]2C[C@@H]3CCCC[C@@H]3N2C(=O)[C@@H]2CCCN2C(=O)[C@H](CC(C)C)NC(=O)[C@H](CO)NC(=O)[C@H](CCCNC(=N)N)NC(=O)[C@H](CO)NC1=O) [Example 468: ((N-Me)G)-IC+SRSLP-(Oic)-I-(Pen)+IP-(PEG2(13 atoms))-OH] | 80 nM | – | –
AICSRSLP[Oic]I[Pen]IPD-OH (disulfide 3-11; also: choline salt) [Example 432: AIC+SRSLP-(Oic)-I-(Pen)+IPD-OH (choline-salt)] | – | – | 2.7 nM
